1 substance from publication PMC2775897 can be followed below.

This experiment has as its target axonemes (purified from sea urchin sperm flagella) (sea urchin). Description: single-molecule fluorescence microscopy.

In the case of “DNA-kinesin monomer K336 333C_10 bp (from UniProt P33176 1-336)”, the dwell time turned out to be 170 ms.
